From US20120207760A1

B1: TCN-539 (5056_A08) (antibody, V domains shown)
VH: QVQLVESGGGVVQPGRSLRLSCAASEITFITYAMHWVRQAPGKGLEWVALISDDGSNKFYADSVKGRFTISRDNSKNTLYLQMNSLRAEDTAAYYCAREGVYFDSGTYRGYFDYWGQETLVTVSS
VL: EIVLTQSPATLSLSPGERATLSCRASQSVSSYLAWYQQKPGQAPRLLIYDASNRATGIPARFSGSGSGTDFTLTISSLEPEDFAVYYCQQRSHWPPITFGQGTRLEIK
B2: TCN-542 (5079_A16) (antibody, V domains shown)
VH: QVQLQESGPGLVKPSQTLSLTCTVSGGSISSGNYYWNWVRQHPGKGLEWIGYIYYRGSTFYNPSLKSRVTISIDTSKNQFSLRLSSVTAADTAVYYCAKDTRSSLDNYQYGMDVWGQGTTVTVSS
VL: QTVVTQEPSLTVSPGGTVTLTCASSTGAVTSSYFPNWFQQKPGQAPRPLIYSTTIRHSWTPARFSGSLLGGKAALTLSGVQPEDEADYYCLLYSGGDPVAFGGGTKLTVL
B3: TCN-551 (5243_D01) (antibody, V domains shown)
VH: EVQLVQSGSEVKKPGESLKISCKGSGYSFSNYWIGWVRHMPGKGLEWMGIIYPGDSDTRYSPSFQGQVTMSADKSSSTVYLQWSSLKASDTAIYYCARRGGHSFGYGSGGDTHSEFDSWGQGTLVTVSS
VL: QSVLTQSPSVSAAPGQKVTISCSGSDSNIGDYFVCWYQHLPGKPPQLLIYENNKRPSGIPDRFSGSKSGTSATLGITGIQTGDEADYYCATWDGSLSAWVFGGGTKLTVL
B4: TCN-533 (5256_A17) (antibody, V domains shown)
VH: QVQLVQSGADVKKPGSSVTVSCKASGGSFSNYGINWVRQAPGQGLEWMGGIIPLINAPNYAPKFQGRVTITADMFSNIVSLQLTSLRTDDTAVYYCARRKMTTAIDYWGQGTLVTVSS
VL: QPVLSQPPSASASLGASVTLTCTLSSGFDNYQVAWYQQRPGKGPRFVMRVGNGGNVASKGDGIPDRFSVSGSGLNRYLTIKNIQEDDESDYYCGADHGSGNNFVSPYVFGGGTKLTVL

Experiments:
Settings in all cases: remark: other sources report otherwise
[1] = target: recombinant soluble homotrimeric HA of A/Common magpie/Hong Kong/5052/07 - H5N1 (Influenza A virus A/common magpie/Hong Kong/5052/2007 (H5N1)); assay: micro-array; captured IgG, V5-tagged trimeric HA
[2] = target: Hemagglutinin of influenza A/Japan/305/57 (H2N2), on inactivated whole virions (Influenza A virus A/Japan/305/1957 (H2N2)), P03451; assay: ELISA, B cell culture supernatant on inactivated whole virions
[3] = target: recombinant soluble homotrimeric HA of A/common magpie/Hong Kong/5052/07 (H5N1) (Influenza A virus A/common magpie/Hong Kong/5052/07 (H5N1)); assay: microarray, BCC supernatant IgG, trimeric HA

Row | Binder | Trimeric HA Binding: RLU [1] | also measured
1 | B1 | 1440 RLU | –
2 | B2 | 1670 RLU | –
3 | B3 | – | OD450 [2]: 0.19 OD450
4 | B4 | – | Trimeric HA Binding: RLU [3]: 44500 RLU
